Measurements: US20250188161A1 (UNIVERSITE CATHOLIQUE DE LOUVAIN, published 2025)
Values joined by “and” are separate entries in the source; they are usually repeats but may differ in a detail not shown here. Equal entries are not always repeated.

How the values were obtained:
[1] = molecular target: T1, mouse latent TGF-β3 on transfected 293T cells (mouse, UniProt P17125 24-410); assay: flow cytometry, 293T cells transfected with GARP and HA-TGF-β3, GAM-FITC as secondary reagent; anti-HA staining gives only a low tail
T1 construct: whole, on cells; also called murine latent TGF-β3; HA-tagged TGF-β3
T1 sequence (looked up): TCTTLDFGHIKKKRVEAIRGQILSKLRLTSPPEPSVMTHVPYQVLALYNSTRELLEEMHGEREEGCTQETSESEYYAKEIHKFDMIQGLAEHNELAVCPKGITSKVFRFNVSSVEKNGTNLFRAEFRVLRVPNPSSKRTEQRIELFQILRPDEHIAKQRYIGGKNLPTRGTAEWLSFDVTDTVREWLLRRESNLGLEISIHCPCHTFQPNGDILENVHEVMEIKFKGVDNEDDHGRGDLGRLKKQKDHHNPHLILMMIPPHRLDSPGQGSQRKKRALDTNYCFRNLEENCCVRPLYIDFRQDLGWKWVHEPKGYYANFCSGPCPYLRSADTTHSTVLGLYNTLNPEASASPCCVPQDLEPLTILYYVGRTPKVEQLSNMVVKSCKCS
Text: (§1) Flow cytometry was used to ensure that LMT-12 binds specifically to mouse latent TGF-β1 and not to mouse latent TGF-β2 and mouse latent TGF-β3. Briefly, 293T cells were transfected with plasmids encoding HA-tagged TGF-β1, β2, or β3, with a plasmid encoding GARP. They were then stained with the indicated concentrations of LMT-12 mIgG1 or anti-HA mIgG1 antibody and thereafter with goat anti-mouse coupled to FITC (GAM-FITC) as secondary reagent. Using flow cytometry, histograms were gated on live cells as determined with a viability dye (Bioscience, cat. 65-0865-14).

[2] = molecular target: T2, mouse latent TGF-β2 on transfected 293T cells (mouse, UniProt P27090 21-414); assay: flow cytometry, 293T cells transfected with GARP and HA-TGF-β2, GAM-FITC as secondary reagent; expression shown by anti-HA staining
T2 construct: whole, on cells; also called murine latent TGF-β2; HA-tagged TGF-β2
T2 sequence (looked up): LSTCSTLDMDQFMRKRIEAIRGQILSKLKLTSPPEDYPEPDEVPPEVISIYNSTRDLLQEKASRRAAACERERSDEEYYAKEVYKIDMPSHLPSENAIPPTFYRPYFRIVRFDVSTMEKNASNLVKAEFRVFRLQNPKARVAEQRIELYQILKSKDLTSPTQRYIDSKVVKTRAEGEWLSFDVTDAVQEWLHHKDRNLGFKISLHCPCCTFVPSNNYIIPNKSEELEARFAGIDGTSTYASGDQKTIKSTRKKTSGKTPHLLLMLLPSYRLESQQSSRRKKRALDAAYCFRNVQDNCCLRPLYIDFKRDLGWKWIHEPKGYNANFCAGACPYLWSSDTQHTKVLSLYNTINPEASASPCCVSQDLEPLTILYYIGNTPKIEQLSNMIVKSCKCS
Text: as §1

mouse latent TGF-β1 = molecular target: T3, mouse latent TGF-β1 (mouse, UniProt P04202 30-278; P04202 279-390); assay: SPR (Biacore 3000), mouse latent TGFβ1 amine-coupled on CM5 (about 500 RU), antibody at 3-100 nM
T3 construct: signal peptide 1-29 left out; also called murine latent TGF-β1 (immobilised protein)
T3 sequence (P04202 30-278, chain 1 of 2): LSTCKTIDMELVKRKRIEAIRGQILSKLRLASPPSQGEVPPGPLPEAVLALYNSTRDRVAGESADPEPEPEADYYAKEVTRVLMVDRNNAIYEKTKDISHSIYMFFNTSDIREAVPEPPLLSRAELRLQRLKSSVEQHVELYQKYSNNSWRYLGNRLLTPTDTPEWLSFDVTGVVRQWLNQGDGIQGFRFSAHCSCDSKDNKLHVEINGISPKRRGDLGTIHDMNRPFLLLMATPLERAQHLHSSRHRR
T3 sequence (P04202 279-390, chain 2 of 2): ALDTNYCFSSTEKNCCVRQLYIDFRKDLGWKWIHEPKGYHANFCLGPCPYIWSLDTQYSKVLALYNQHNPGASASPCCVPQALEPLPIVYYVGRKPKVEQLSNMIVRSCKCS
Procedure: A CM5 chip was immobilized with approximately 500RU human latent TGFβ1 and mouse latent TGFβ1 in sodium acetate buffer pH4.5 (GE Healthcare, #BR100350) using amine coupling and consuming HBS-EP buffer. The flow was set to 30 μl/min with the “kinject” injection mode and a regeneration injection of 10 mM glycine pH1.5.

[3] = molecular target: mouse TGF-β1 D212A single Ala-mutant on HEK-293T cells (mouse, UniProt P04202 30-278; P04202 279-390); assay: Ala-scan, flow cytometry on HEK-293T cells with mouse GARP and HA-tagged single Ala-mutant
mouse TGF-β1 D212A single Ala-mutant on HEK-293T cells, sequence (P04202 30-278 D212A, chain 1 of 2): as the sequence (P04202 30-278, chain 1 of 2) above, with D183A counted along it
mouse TGF-β1 D212A single Ala-mutant on HEK-293T cells, sequence (P04202 279-390, chain 2 of 2): as the sequence (P04202 279-390, chain 2 of 2) above
Text: (§2) To perform “Ala-scan” analyses, we co-transfected plasmids encoding mouse or human GARP and the single Ala-mutants of mouse or human TGF-β1 in HEK-293T cells, and analyzed binding by TGF-β1-activating and non-activating mAbs using flow cytometry (FIG. 3C).

[4] = molecular target: mouse TGF-β1 L208A single Ala-mutant on HEK-293T cells (mouse, UniProt P04202 30-278; P04202 279-390); assay: as above
mouse TGF-β1 L208A single Ala-mutant on HEK-293T cells, sequence (P04202 30-278 L208A, chain 1 of 2): as the sequence (P04202 30-278, chain 1 of 2) above, with L179A counted along it
mouse TGF-β1 L208A single Ala-mutant on HEK-293T cells, sequence (P04202 279-390, chain 2 of 2): as the sequence (P04202 279-390, chain 2 of 2) above
Text: as §2

[5] = molecular target: T4, mouse latent TGF-β1 on transfected HEK-293T cells (mouse, UniProt P04202 30-278; P04202 279-390); assay: cell-based or functional assay
T4 sequence (P04202 30-278, chain 1 of 2): as the sequence (P04202 30-278, chain 1 of 2) above
T4 sequence (P04202 279-390, chain 2 of 2): as the sequence (P04202 279-390, chain 2 of 2) above

W207A = molecular target: T5, W207A; assay: Ala-scan, flow cytometry, HEK-293T cells with GARP and the HA-tagged Ala-mutant; residual binding in % of WT
T5 construct: co-expressed with GARP; also called mouse TGF-β1 W207A single Ala-mutant on HEK-293T cells
T5 sequence (HA-tagged latent TGF-β1, as listed by the source W207A W207A limits assumed): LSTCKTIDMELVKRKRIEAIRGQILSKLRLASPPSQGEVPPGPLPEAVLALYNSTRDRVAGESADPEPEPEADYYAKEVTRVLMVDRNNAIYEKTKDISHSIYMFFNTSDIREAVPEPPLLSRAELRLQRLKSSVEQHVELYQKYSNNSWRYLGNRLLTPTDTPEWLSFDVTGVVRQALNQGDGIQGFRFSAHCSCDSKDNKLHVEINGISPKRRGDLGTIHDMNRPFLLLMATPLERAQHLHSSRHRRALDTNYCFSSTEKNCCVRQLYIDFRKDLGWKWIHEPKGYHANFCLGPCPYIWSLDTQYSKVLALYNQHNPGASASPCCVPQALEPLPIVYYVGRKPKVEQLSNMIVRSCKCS
Text: as §2

T201A = molecular target: T6, T201A; assay: as above
T6 construct: co-expressed with GARP; also called mouse TGF-β1 T201A single Ala-mutant on HEK-293T cells
T6 sequence (HA-tagged latent TGF-β1, as listed by the source T201A T201A limits assumed): as the sequence (HA-tagged latent TGF-β1, as listed by the source W207A W207A limits assumed) above, with T172A, A178W counted along it
Text: as §2

G211A = molecular target: T7, G211A; assay: as above
T7 construct: co-expressed with GARP; also called mouse TGF-β1 G211A single Ala-mutant on HEK-293T cells
T7 sequence (HA-tagged latent TGF-β1, as listed by the source G211A G211A limits assumed): as the sequence (HA-tagged latent TGF-β1, as listed by the source W207A W207A limits assumed) above, with A178W, G182A counted along it
Text: as §2

F219A = molecular target: T8, F219A; assay: as above
T8 construct: co-expressed with GARP; also called mouse TGF-β1 F219A single Ala-mutant on HEK-293T cells
Text: as §2

Q206A = molecular target: T9, Q206A; assay: as above
T9 construct: co-expressed with GARP; also called mouse TGF-β1 Q206A single Ala-mutant on HEK-293T cells
Text: as §2

Q215A = molecular target: T10, Q215A; assay: as above
T10 construct: co-expressed with GARP; also called mouse TGF-β1 Q215A single Ala-mutant on HEK-293T cells
T10 sequence (HA-tagged latent TGF-β1, as listed by the source Q215A Q215A limits assumed): as the sequence (HA-tagged latent TGF-β1, as listed by the source W207A W207A limits assumed) above, with A178W, Q186A counted along it
Text: as §2

N209A = molecular target: T11, N209A; assay: as above
T11 construct: co-expressed with GARP; also called mouse TGF-β1 N209A single Ala-mutant on HEK-293T cells
Text: as §2

V203A = molecular target: T12, V203A; assay: as above
T12 construct: co-expressed with GARP; also called mouse TGF-β1 V203A single Ala-mutant on HEK-293T cells
T12 sequence (HA-tagged latent TGF-β1, as listed by the source V203A V203A limits assumed): as the sequence (HA-tagged latent TGF-β1, as listed by the source W207A W207A limits assumed) above, with V174A, A178W counted along it
Text: as §2

G213A = molecular target: T13, G213A; assay: as above
T13 construct: co-expressed with GARP; also called mouse TGF-β1 G213A single Ala-mutant on HEK-293T cells
Text: as §2

I214A = molecular target: T14, I214A; assay: as above
T14 construct: co-expressed with GARP; also called mouse TGF-β1 I214A single Ala-mutant on HEK-293T cells
Text: as §2

S220A = molecular target: T15, S220A; assay: as above
T15 construct: co-expressed with GARP; also called mouse TGF-β1 S220A single Ala-mutant on HEK-293T cells
Text: as §2

R205A = molecular target: T16, R205A; assay: as above
T16 construct: co-expressed with GARP; also called mouse TGF-β1 R205A single Ala-mutant on HEK-293T cells
T16 sequence (HA-tagged latent TGF-β1, as listed by the source R205A R205A limits assumed): as the sequence (HA-tagged latent TGF-β1, as listed by the source W207A W207A limits assumed) above, with R176A, A178W counted along it
Text: as §2

G216A = molecular target: T17, G216A; assay: as above
T17 construct: co-expressed with GARP; also called mouse TGF-β1 G216A single Ala-mutant on HEK-293T cells
T17 sequence (HA-tagged latent TGF-β1, as listed by the source G216A G216A limits assumed): as the sequence (HA-tagged latent TGF-β1, as listed by the source W207A W207A limits assumed) above, with A178W, G187A counted along it
Text: as §2

G202A = molecular target: T18, G202A; assay: as above
T18 construct: co-expressed with GARP; also called mouse TGF-β1 G202A single Ala-mutant on HEK-293T cells
Text: as §2

Q210A = molecular target: T19, Q210A; assay: as above
T19 construct: co-expressed with GARP; also called mouse TGF-β1 Q210A single Ala-mutant on HEK-293T cells
Text: as §2

V204A = molecular target: T20, V204A; assay: as above
T20 construct: co-expressed with GARP; also called mouse TGF-β1 V204A single Ala-mutant on HEK-293T cells
T20 sequence (HA-tagged latent TGF-β1, as listed by the source V204A V204A limits assumed): as the sequence (HA-tagged latent TGF-β1, as listed by the source W207A W207A limits assumed) above, with V175A, A178W counted along it
Text: as §2

F217A = molecular target: T21, F217A; assay: as above
T21 construct: co-expressed with GARP; also called mouse TGF-β1 F217A single Ala-mutant on HEK-293T cells
T21 sequence (HA-tagged latent TGF-β1, as listed by the source F217A F217A limits assumed): as the sequence (HA-tagged latent TGF-β1, as listed by the source W207A W207A limits assumed) above, with A178W, F188A counted along it
Text: as §2

R218A = molecular target: T22, R218A; assay: as above
T22 construct: co-expressed with GARP; also called mouse TGF-β1 R218A single Ala-mutant on HEK-293T cells
Text: as §2

[6] = molecular target: T4, mouse latent TGF-β1 on transfected …; assay: flow cytometry, HEK-293T cells co-transfected with mGarp and the HA-tagged TGF-β1 construct
human latent TGF-β1 = molecular target: T23, human latent TGF-β1 (human, UniProt P01137 30-278; P01137 279-390); assay: SPR (Biacore 3000), human latent TGFβ1 amine-coupled on CM5, antibody injected
T23 construct: signal peptide 1-29 left out; also called human latent TGF-β1 (immobilised / coated protein)

B1: LMT-12 mIgG1 (antibody, V domains shown)
VH: EVQLVESGGGLVQPGGSLRLSCAASGFTFSSYYMYWVRQAPGKGLEWVSGTSIGGGSTWYADSVKGRFTISRDNAKNTLYLQMNNLKSEDTAVYYCAKDLNSRSYKGMGDWGQGTQVTVSS
VL: QPALTQLSSMSGSPGQTVTITCTGSSSNIGGGYYLNWYQQLPGAAPKLVIYNANNRASGVPDRFSGSKSGNLASLTITGLQAEDEAVYFCGCYDSSLSSVVFGGGTHLTVL
notes: also called mAb LMT-12
B1: no binding (tested: 20.00 µg/ml) [1]; no binding (tested: 20.00 µg/ml) [2].

B2: LMT-2 (6D12) (antibody, V domains shown)
VH: EVQLVESGGGLVQPGGSLRLSCAASGFTFSNYGVHWVRQAPGKGLEWVSHISAAGISRYYADAVKGRFTMSRDNGKNTLYLQMNGLKSEDTAVYYCAKDRIRSSYEYDSWGQGTQVTVSS
VL: LPVLTQLSSMSGSPGQTVTITCTGSSSNIGGGYYLSWYQQLPGTAPKLLIYNANNRASGVPNRFSGSKSGNLASLTITGLQAEDEADYYCGCYDSSLSTGYVFGGGTKLTVL
notes: also called LMT-2 (hIgG1)
With B2 the “Amplitude R0 (RU)” value (mouse latent TGF-β1) was 241 RU, the Kd (mouse latent TGF-β1) was 0.633 nM and the koff (mouse latent TGF-β1) was 0.000718 s⁻¹. For the same binder, the kon (mouse latent TGF-β1) was 1.14e+06 M⁻¹ s⁻¹, the binding result [3] was “no binding” and the binding result [4] was “no binding”. For the same binder, the “EC50, TGF-β1 luciferase reporter assay in HEK-293T cells expressing GARP:TGF-β1” value [5] was 76 ng/ml and 0.5 nM, the binding result (W207A) was “binds” and the binding result (T201A) was “binds”. B2: binds (G211A); binds (F219A); binds (Q206A). B2: binds (Q215A); binds (N209A); binds (V203A). B2: binds (G213A); binds (I214A); binds (S220A). B2: binds (R205A); binds (G216A); binds (G202A). B2: binds (Q210A); binds (V204A); binds (F217A). For the same binder, the binding result (R218A) was “binds”, the “% binding relative to WT TGF-β1 (100 %)” value [6] was 100% and the binding result (human latent TGF-β1) was “no binding (tested: six concentrations, 3 nM to 100 nM)”.
